This note sets out measurements from PMC9600979.

In experiment [1] the target is gH-Lg CTSCR / HSV-1 gL (herpes simplex virus 1 (strain KOS)) (UniProt P10185). In words: split reporter (BiFC, NanoBiT); live CHO effector cells transfected with the two BiT-tagged partners and the remaining HSV-1 proteins required for fusion; Endurazine substrate; luminescence every 2 min at 37°C for 1 h before and 7.5 or 8 h after adding target CHO cells with or without nectin-1; quantified as area under the curve.

Experiment [2] addresses gH-Lg TMDEBV / HSV-1 gL (herpes simplex virus 1 (strain KOS) | Epstein-Barr virus) (UniProt P10185). Described as above.
Experiment [3] concerns the target gH-Lg TMDEBV-CTSCR / HSV-1 gL (herpes simplex virus 1 (strain KOS) | Epstein-Barr virus) (UniProt P10185). The description is as above.
Experiment [4] addresses HSV-1 gH-Lg expressed without gL (herpes simplex virus 1 (strain KOS)) (UniProt P06477). Description: split reporter (BiFC, NanoBiT); as the NanoBiT assay in live CHO cells, but in the absence of HSV-1 gL (gH stays in the ER).
Chain of UniProt P06477 (P06477 19-838): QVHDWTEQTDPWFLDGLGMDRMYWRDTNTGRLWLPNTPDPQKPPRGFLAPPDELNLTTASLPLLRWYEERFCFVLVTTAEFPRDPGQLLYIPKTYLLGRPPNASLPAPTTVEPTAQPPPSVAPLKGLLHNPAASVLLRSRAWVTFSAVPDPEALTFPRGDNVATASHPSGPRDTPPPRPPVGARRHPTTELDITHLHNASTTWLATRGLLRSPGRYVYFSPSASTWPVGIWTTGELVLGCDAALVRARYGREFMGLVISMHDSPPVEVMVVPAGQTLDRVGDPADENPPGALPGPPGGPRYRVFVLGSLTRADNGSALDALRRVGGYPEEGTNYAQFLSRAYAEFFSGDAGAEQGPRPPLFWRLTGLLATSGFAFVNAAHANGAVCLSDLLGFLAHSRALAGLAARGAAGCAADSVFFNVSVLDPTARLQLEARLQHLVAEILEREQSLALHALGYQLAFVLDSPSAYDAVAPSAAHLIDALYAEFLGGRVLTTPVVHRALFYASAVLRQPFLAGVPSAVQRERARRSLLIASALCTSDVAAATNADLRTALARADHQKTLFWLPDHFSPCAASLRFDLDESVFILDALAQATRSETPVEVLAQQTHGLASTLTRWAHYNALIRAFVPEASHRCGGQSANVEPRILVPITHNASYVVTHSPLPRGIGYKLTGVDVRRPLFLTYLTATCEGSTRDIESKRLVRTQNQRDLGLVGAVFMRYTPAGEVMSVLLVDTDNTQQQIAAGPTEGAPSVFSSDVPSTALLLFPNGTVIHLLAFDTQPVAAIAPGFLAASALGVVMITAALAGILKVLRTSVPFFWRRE

As for “HSV-1 gB-Sm (from UniProt P06437 31-904) (natural protein)”, the percent of the interaction of WT HSV-1 gH-Lg/gL in experiment [1] was 60%; in experiment [2] it was 60%; in experiment [3] it was 54%.
Substance “HSV-1 gD-Sm (from UniProt Q69091 26-394) (natural protein)” registered a fold reduction in the absence of gL (against gH-Lg/gL) in experiment [4] of 6 fold. Besides, in experiment [3], the percent of the interaction of WT HSV-1 gH-Lg amounted to 45%.
